Experimental data reported in patent publication US20220242962A1 (APTEVO RESEARCH AND DEVELOPMENT, published 2022).
One block for each binder: values may come before it.

Experiments:
Full-length Human OX40 = target: T1, Full-length Human OX40 (human, UniProt P43489 29-277); assay: flow cytometry, CHO cells expressing human OX40
T1 construct: also called OXF001; human OX40/CHO
T1 sequence: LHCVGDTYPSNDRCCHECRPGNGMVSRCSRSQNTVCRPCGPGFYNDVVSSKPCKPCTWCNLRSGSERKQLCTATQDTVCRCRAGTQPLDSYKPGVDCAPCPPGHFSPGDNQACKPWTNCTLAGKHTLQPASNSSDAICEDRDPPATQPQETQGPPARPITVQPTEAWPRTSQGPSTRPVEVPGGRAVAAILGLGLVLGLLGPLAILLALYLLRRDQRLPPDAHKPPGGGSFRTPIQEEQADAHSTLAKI

Fc gamma receptor RIIIB = target: T2, Fc gamma receptor RIIIB (human, UniProt O75015 17-200); assay: SPR, construct immobilized, receptor injected at 2 uM
T2 construct: soluble SPR analyte

Cyno RI = target: T3, Cyno RI (cynomolgus monkey, UniProt Q8SPW5 16-292); assay: SPR, Fc captured, receptor as analyte
T3 construct: also called cyno RI receptor
Protocol: (§1) For these experiments, all four flow cells of a CM5 sensor chip were immobilized with goat F(ab′)2 anti-human Fc (Jackson ImmunoResearch) to a response level of ˜4000 RU. Fc variants and wild type Fc were diluted to 100 nM in HBS-EP+ and captured on the surface of the chip for 120 seconds at a flow rate of 10 μL/min. Fcγ receptors (human and cyno, all purchased from R&D Systems) and complement (C1Q, purchased from Quidel Corporation and Complement Technology, Inc) were diluted in HBS-EP+ and then flowed as analytes at 30 μL/min for 120 seconds followed by a 120 seconds dissociation. Regeneration was achieved by flowing 10 mM glycine pH 1.7 at 30 μL/min for 30 seconds followed by a 60 seconds stabilization. Flow cell 1 was always left as a blank (no captured protein) for purposes of background signal subtraction. Blank-subtracted sensorgrams for each captured Fc variant were inspected for the presence of binding to any of the Fcγ receptor proteins or complement. There are polymorphisms in the Human Fc receptors IIA and RIIIA, so both sequences were tested for binding.

Cyno RIII = target: T4, Cyno RIII (cynomolgus monkey, UniProt Q8SPW2 17-208); assay: SPR, Fc captured, receptor as analyte
T4 construct: extracellular domain
Protocol: as §1

T3 sequence (Q8SPW5 entry or part of it limits assumed): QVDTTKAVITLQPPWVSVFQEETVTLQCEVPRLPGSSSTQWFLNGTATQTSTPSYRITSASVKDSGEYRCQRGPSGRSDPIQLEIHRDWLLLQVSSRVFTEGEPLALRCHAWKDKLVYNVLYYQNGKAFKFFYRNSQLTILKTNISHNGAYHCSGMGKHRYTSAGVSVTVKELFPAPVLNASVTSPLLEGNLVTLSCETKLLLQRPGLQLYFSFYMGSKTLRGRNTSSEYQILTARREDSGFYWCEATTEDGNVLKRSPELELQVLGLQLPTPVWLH
T4 sequence (Q8SPW2 17-208): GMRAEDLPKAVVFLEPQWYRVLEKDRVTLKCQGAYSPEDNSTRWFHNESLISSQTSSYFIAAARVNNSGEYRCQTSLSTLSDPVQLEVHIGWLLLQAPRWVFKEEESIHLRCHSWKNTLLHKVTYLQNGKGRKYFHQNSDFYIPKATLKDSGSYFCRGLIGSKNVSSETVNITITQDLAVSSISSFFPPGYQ
T2 sequence (O75015 17-200): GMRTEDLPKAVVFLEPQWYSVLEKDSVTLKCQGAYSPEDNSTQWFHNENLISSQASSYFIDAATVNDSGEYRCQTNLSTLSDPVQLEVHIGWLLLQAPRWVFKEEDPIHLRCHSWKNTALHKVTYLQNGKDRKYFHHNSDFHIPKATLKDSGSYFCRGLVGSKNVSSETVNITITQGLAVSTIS

EC50 (Full-length Human OX40): 1.5 nM
Max MFI (Full-length Human OX40): 8620 MFI
B1: FXX01066 (bispecific antibody)
chain: EVQLVQSGAEVKKPGASVKVSCKASGYTFTSYWMNWVRQAPGQGLEWMGNIYPSGGSTNYAQKFQGRVTMTVDTSTSTVYMELSSLRSEDTAVYYCASFSDGYYAYAMDYWGQGTLVTVSSGGGGSGGGGSGGGGSGGGGSEIVMTQSPATLSLSPGERATLSCRASQSVSSYLNWYQQKPGQAPRLLIYYASRRHTGIPARFSGSGSGTDFTLTISSLQPEDFAVYYCQQGYNLPYTFGQGTKVEIKEPKSSDKTHTCPPCPAPPAAAPSVFLFPPKPKDTLMISRTPEVTCVVVDVSHEDPEVKFNWYVDGVEVHNAKTKPREEQYNSTYRVVSVLTVLHQDWLNGKEYKCAVSNKALPAPIEKTISKAKGQPREPQVYTLPPSRDELTKNQVSLTCLVKGFYPSDIAVEWESNGQPENNYKTTPPVLDSDGSFFLYSKLTVDKSRWQQGNVFSCSVMHEALHNHYTQKSLSLSPGGGGSPSSYVLTQPPSVSVAPGQTARITCGGNNIGSKSVNWFQQKPGQAPVLVVYDDSGRPSGIPERFSGSTSGNTATLTISRVEAGDEADYYCQVWDSSSDHVVFGGGTKLTVLGGGGSGGGGSGGGGSGGGGSQVQLVESGGGVVQPGRSLRLSCAASGFTLSYYGMHWVRQAPGKGLEWVAAISHDGSDKYYADSVKGRFTISRDNSKNTLYLQMNSLRAEDTAVYYCSNDQFDPWGQGTLVTVSSR
notes: ADAPTIR scFv-Fc-scFv, anti-4-1BB (VH-VL) N-terminal, anti-OX40 C-terminal, PAA (del) Fc; also called FX01066

Max RU value during association (Fc gamma receptor RIIIB): 0 RU
B2: FXX01115 (bispecific antibody)
chain: EVQLVQSGAEVKKPGASVKVSCKASGYTFTSYWMNWVRQAPGQGLEWMGNIYPSGGSTNYAQKFQGRVTMTVDTSTSTVYMELSSLRSEDTAVYYCASFSDGYYAYAMDYWGQGTLVTVSSGGGGSGGGGSGGGGSGGGGSEIVMTQSPATLSLSPGERATLSCRASQSVSSYLNWYQQKPGQAPRLLIYYASRRHTGIPARFSGSGSGTDFTLTISSLQPEDFAVYYCQQGYNLPYTFGQGTKVEIKEPKSSDKTHTCPPCPAPPAAAPSVFLFPPKPKDTLMISRTPEVTCVVVDVSHEDPEVKFNWYVDGVEVHNAKTKPREEQYNSTYRVVSVLTVLHQDWLNGKEYKCAVSNKALPAPIEKTISKAKGQPREPQVYTLPPSRDELTKNQVSLTCLVKGFYPSDIAVEWESNGQPENNYKTTPPVLDSDGSFFLYSKLTVDKSRWQQGNVFSCSVMHEALHNHYTQKSLSLSPGGGGSPSSYVLTQPPSVSVAPGQTARITCGGNNIGSKSVNWFQQKPGQAPVLVVYDDSGRPSGVPNRFSGSTSGNTATLTISRVEAGDEADYYCQVWDSSSDHVVFGGGTKLTVLGGGGSGGGGSGGGGSGGGGSQVQLVESGGGVVQPGRSLRLSCAASGFTLSYYGMHWVRQAPGKGLEWVAAISHDGSDKYYADSVKGRFTISRDNSKNRLYLQMNSLRAEDTAVYYCSNDQFDPWGQGTLVTVSSR
notes: ADAPTIR anti-4-1BB x anti-OX40, pI variant; PAA (del) Fc

binding result (Cyno RI): no binding
binding result (Cyno RIII): no binding
B3: TSC 1005 (other)
chain: EPKSSDKTHTCPPCPAPPVAAPSVFLFPPKPKDTLMISRTPEVTCVVVDVSHEDPEVKFNWYVDGVEVHNAKTKPREEQYNSTYRVVSVLTVLHQDWLNGKEYKCAVSNKALPAPIEKTISKAKGQPREPQVYTLPPSRDELTKNQVSLTCLVKGFYPSDIAVEWESNGQPENNYKTTPPVLDSDGSFFLYSKLTVDKSRWQQGNVFSCSVMHEALHNHYTQKSLSLSPG
notes: IgG1 Fc with E233P, L234V, L235A, deletion of G236, G237A, K322A (EU); also called PVAdel TSC01005
